Measurements: US20110229482A1, “Method of inhibiting infection by HCV, other flaviviridae viruses, and any other virus that complexes to low density lipoprotein or to very low density lipoprotein in blood by preventing viral entry into a cell” (priority 2000, published 2011)

Biological target: LDL receptor (human), on cells (human) (UniProt P01130)
Experiment: cell-based or functional assay

Substance: HDL fraction of HCV-infected serum (HCV-HDL)
- Endocytosis of 5 µg DiI-labeled fraction, mean fluorescence (log scale) (mean fluorescence (log scale)): 1.88

Substance: LDL fraction of HCV-infected serum (HCV-LDL)
- Endocytosis of 5 µg DiI-labeled fraction, mean fluorescence (log scale) (mean fluorescence (log scale)): 9.98

Substance: VLDL fraction of HCV-infected serum (HCV-VLDL)
- Endocytosis of 5 µg DiI-labeled fraction, mean fluorescence (log scale) (mean fluorescence (log scale)): 8.49

Substance: high density lipoprotein (HDL) from normal serum
- competitive inhibition of endocytosis of HCV by HepG2, G4 and E11 cells: > 200 µg/mL

Substance: low density lipoprotein (LDL) from normal serum, P04114 1-4563
- Uptake of LDL by cultured cells, mean fluorescence (G4, lipoprotein deficient medium, DiI-LDL) (mean fluorescence): 16
- Uptake of LDL by cultured cells, mean fluorescence (G4, routine medium, DiI-LDL) (mean fluorescence): 4
- Uptake of LDL by cultured cells, mean fluorescence (HepG2, routine medium, DiI-LDL) (mean fluorescence): 16
